Results: US20200317768A1 (published 2020)

B1: MS_M103205H795-SG1/M103202L889-SK1 (antibody, human IgG1, kappa)
heavy: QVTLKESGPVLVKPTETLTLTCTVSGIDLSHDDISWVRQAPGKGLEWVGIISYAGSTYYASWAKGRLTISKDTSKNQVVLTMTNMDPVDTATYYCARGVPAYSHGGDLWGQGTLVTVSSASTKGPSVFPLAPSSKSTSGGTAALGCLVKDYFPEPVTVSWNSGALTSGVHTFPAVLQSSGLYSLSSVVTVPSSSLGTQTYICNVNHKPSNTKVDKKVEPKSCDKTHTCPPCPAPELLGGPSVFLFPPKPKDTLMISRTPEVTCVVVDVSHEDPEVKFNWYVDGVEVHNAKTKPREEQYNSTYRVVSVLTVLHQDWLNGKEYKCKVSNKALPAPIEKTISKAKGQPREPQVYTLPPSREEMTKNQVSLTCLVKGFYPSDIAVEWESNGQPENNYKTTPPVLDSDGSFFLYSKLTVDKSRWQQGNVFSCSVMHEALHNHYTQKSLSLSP
light: DIVMTQSPATLSLSPGERATLSCTSSQSVYHANWLSWFQQKPGQPPKLLIYWASTLAYGVPSRFSGSGSGTDFTLTISSLQPEDAATYYCAGGYGGGRYAFGQGTKVEIKRTVAAPSVFIFPPSDEQLKSGTASVVCLLNNFYPREAKVQWKVDNALQSGNSQESVTEQDSKDSTYSLSSTLTLSKADYEKHKVYACEVTHQGLSSPVTKSFNRGEC
notes: Parent antibody; also called MS1032LO06-SG1
B2: M103205H795-MY143/M103202L889-SK1 (antibody, human IgG1, kappa)
heavy: QVTLKESGPVLVKPTETLTLTCTVSGIDLSHDDISWVRQAPGKGLEWVGIISYAGSTYYASWAKGRLTISKDTSKNQVVLTMTNMDPVDTATYYCARGVPAYSHGGDLWGQGTLVTVSSASTKGPSVFPLAPSSKSTSGGTAALGCLVKDYFPEPVTVSWNSGALTSGVHTFPAVLQSSGLYSLSSVVTVPSSSLGTQTYICNVNHKPSNTKVDKKVEPKSCDKTHTCPPCPAPELLSGPSVFLFPPKPKDTLMISRTPEVTCVVVDVSEEDPEVKFNWYVDGVEVHNAKTKPREEQYNSTYRVVSVLTVLHQDWLNGKEYKCKVSNKALPAPIEKTISKAKGQPREPQVYTLPPSREEMTKNQVSLTCLVKGFYPSDIAVEWESNGQPENNYKTTPMVLDSDGSFFLYSKLTVDKSRWQQGNVFSCSVMHEALHNHYTQKSLSLSP
light: DIVMTQSPATLSLSPGERATLSCTSSQSVYHANWLSWFQQKPGQPPKLLIYWASTLAYGVPSRFSGSGSGTDFTLTISSLQPEDAATYYCAGGYGGGRYAFGQGTKVEIKRTVAAPSVFIFPPSDEQLKSGTASVVCLLNNFYPREAKVQWKVDNALQSGNSQESVTEQDSKDSTYSLSSTLTLSKADYEKHKVYACEVTHQGLSSPVTKSFNRGEC
B3: M103205H795-MY228/M103202L889-SK1 (antibody, human IgG1, kappa)
heavy: QVTLKESGPVLVKPTETLTLTCTVSGIDLSHDDISWVRQAPGKGLEWVGIISYAGSTYYASWAKGRLTISKDTSKNQVVLTMTNMDPVDTATYYCARGVPAYSHGGDLWGQGTLVTVSSASTKGPSVFPLAPSSKSTSGGTAALGCLVKDYFPEPVTVSWNSGALTSGVHTFPAVLQSSGLYSLSSVVTVPSSSLGTQTYICNVNHKPSNTKVDKKVEPKSCDKTHTCPPCPAPELLGYPSVFLFPPKPKDTLMISRTPEVTCVVVDVSDEDPEVKFNWYVDGVEVHNAKTKPREELYNSTYRVVSVLTVLHQDWLNGKEYKCKVSNKALPKPIEKTISKAKGQPREPQVYTLPPSREEMTKNQVSLTCLVKGFYPSDIAVEWESNGQPENNYKTTPPVLDSDGSFFLYSKLTVDKSRWQQGNVFSCSVMHEALHNHYTQKSLSLSP
light: DIVMTQSPATLSLSPGERATLSCTSSQSVYHANWLSWFQQKPGQPPKLLIYWASTLAYGVPSRFSGSGSGTDFTLTISSLQPEDAATYYCAGGYGGGRYAFGQGTKVEIKRTVAAPSVFIFPPSDEQLKSGTASVVCLLNNFYPREAKVQWKVDNALQSGNSQESVTEQDSKDSTYSLSSTLTLSKADYEKHKVYACEVTHQGLSSPVTKSFNRGEC
B4: M103205H795-MY229/M103202L889-SK1 (antibody, human IgG1, kappa)
heavy: QVTLKESGPVLVKPTETLTLTCTVSGIDLSHDDISWVRQAPGKGLEWVGIISYAGSTYYASWAKGRLTISKDTSKNQVVLTMTNMDPVDTATYYCARGVPAYSHGGDLWGQGTLVTVSSASTKGPSVFPLAPSSKSTSGGTAALGCLVKDYFPEPVTVSWNSGALTSGVHTFPAVLQSSGLYSLSSVVTVPSSSLGTQTYICNVNHKPSNTKVDKKVEPKSCDKTHTCPPCPAPELLGYPSVFLFPPKPKDTLMISRTPEVTCVVVDVSDEDPEVKFNWYVDGVEVHNAKTKPREELYNSTYRVVSVLTVLHQDWLNGKEYKCKVSNKALPKPIEKTISKAKGQPREPQVYTLPPSREEMTKNQVSLTCLVKGFYPSDIAVEWESNGQPENNYKTTPKVLDSDGSFFLYSKLTVDKSRWQQGNVFSCSVMHEALHNHYTQKSLSLSP
light: DIVMTQSPATLSLSPGERATLSCTSSQSVYHANWLSWFQQKPGQPPKLLIYWASTLAYGVPSRFSGSGSGTDFTLTISSLQPEDAATYYCAGGYGGGRYAFGQGTKVEIKRTVAAPSVFIFPPSDEQLKSGTASVVCLLNNFYPREAKVQWKVDNALQSGNSQESVTEQDSKDSTYSLSSTLTLSKADYEKHKVYACEVTHQGLSSPVTKSFNRGEC
B5: M103205H795-MY227/M103202L889-SK1 (antibody, human IgG1, kappa)
heavy: QVTLKESGPVLVKPTETLTLTCTVSGIDLSHDDISWVRQAPGKGLEWVGIISYAGSTYYASWAKGRLTISKDTSKNQVVLTMTNMDPVDTATYYCARGVPAYSHGGDLWGQGTLVTVSSASTKGPSVFPLAPSSKSTSGGTAALGCLVKDYFPEPVTVSWNSGALTSGVHTFPAVLQSSGLYSLSSVVTVPSSSLGTQTYICNVNHKPSNTKVDKKVEPKSCDKTHTCPPCPAPELLGYPSVFLFPPKPKDTLMISRTPEVTCVVVDVSDEDPEVKFNWYVDGVEVHNAKTKPREEQYNSTYRVVSVLTVLHQDWLNGKEYKCKVSNKALPKPIEKTISKAKGQPREPQVYTLPPSREEMTKNQVSLTCLVKGFYPSDIAVEWESNGQPENNYKTTPKVLDSDGSFFLYSKLTVDKSRWQQGNVFSCSVMHEALHNHYTQKSLSLSP
light: DIVMTQSPATLSLSPGERATLSCTSSQSVYHANWLSWFQQKPGQPPKLLIYWASTLAYGVPSRFSGSGSGTDFTLTISSLQPEDAATYYCAGGYGGGRYAFGQGTKVEIKRTVAAPSVFIFPPSDEQLKSGTASVVCLLNNFYPREAKVQWKVDNALQSGNSQESVTEQDSKDSTYSLSSTLTLSKADYEKHKVYACEVTHQGLSSPVTKSFNRGEC
B6: M103205H795-MY209/M103202L889-SK1 (antibody, human IgG1, kappa)
heavy: QVTLKESGPVLVKPTETLTLTCTVSGIDLSHDDISWVRQAPGKGLEWVGIISYAGSTYYASWAKGRLTISKDTSKNQVVLTMTNMDPVDTATYYCARGVPAYSHGGDLWGQGTLVTVSSASTKGPSVFPLAPSSKSTSGGTAALGCLVKDYFPEPVTVSWNSGALTSGVHTFPAVLQSSGLYSLSSVVTVPSSSLGTQTYICNVNHKPSNTKVDKKVEPKSCDKTHTCPPCPAPELLNGPSVFLFPPKPKDTLMISRTPEVTCVVVDVSDEDPEVKFNWYVDGVEVHNAKTKPREELYNSTYRVVSVLTVLHQDWLNGKEYKCKVSNTALPKPIEKTISKAKGQPREPQVYTLPPSREEMTKNQVSLTCLVKGFYPSDIAVEWESNGQPENNYKTTPPVLDSDGSFFLYSKLTVDKSRWQQGNVFSCSVMHEALHNHYTQKSLSLSP
light: DIVMTQSPATLSLSPGERATLSCTSSQSVYHANWLSWFQQKPGQPPKLLIYWASTLAYGVPSRFSGSGSGTDFTLTISSLQPEDAATYYCAGGYGGGRYAFGQGTKVEIKRTVAAPSVFIFPPSDEQLKSGTASVVCLLNNFYPREAKVQWKVDNALQSGNSQESVTEQDSKDSTYSLSSTLTLSKADYEKHKVYACEVTHQGLSSPVTKSFNRGEC
B7: M103205H795-MY213/M103202L889-SK1 (antibody, human IgG1, kappa)
heavy: QVTLKESGPVLVKPTETLTLTCTVSGIDLSHDDISWVRQAPGKGLEWVGIISYAGSTYYASWAKGRLTISKDTSKNQVVLTMTNMDPVDTATYYCARGVPAYSHGGDLWGQGTLVTVSSASTKGPSVFPLAPSSKSTSGGTAALGCLVKDYFPEPVTVSWNSGALTSGVHTFPAVLQSSGLYSLSSVVTVPSSSLGTQTYICNVNHKPSNTKVDKKVEPKSCDKTHTCPPCPAPELLNGPSVFLFPPKPKDTLMISRTPEVTCVVVDVSDEDPEVKFNWYVDGVEVHNAKTKPREEQYNSTYRVVSVLTVLHQDWLNGKEYKCKVSNKALPKPIEKTISKAKGQPREPQVYTLPPSREEMTKNQVSLTCLVKGFYPSDIAVEWESNGQPENNYKTTPKVLDSDGSFFLYSKLTVDKSRWQQGNVFSCSVMHEALHNHYTQKSLSLSP
light: DIVMTQSPATLSLSPGERATLSCTSSQSVYHANWLSWFQQKPGQPPKLLIYWASTLAYGVPSRFSGSGSGTDFTLTISSLQPEDAATYYCAGGYGGGRYAFGQGTKVEIKRTVAAPSVFIFPPSDEQLKSGTASVVCLLNNFYPREAKVQWKVDNALQSGNSQESVTEQDSKDSTYSLSSTLTLSKADYEKHKVYACEVTHQGLSSPVTKSFNRGEC
B8: M103205H795-MY219/M103202L889-SK1 (antibody, human IgG1, kappa)
heavy: QVTLKESGPVLVKPTETLTLTCTVSGIDLSHDDISWVRQAPGKGLEWVGIISYAGSTYYASWAKGRLTISKDTSKNQVVLTMTNMDPVDTATYYCARGVPAYSHGGDLWGQGTLVTVSSASTKGPSVFPLAPSSKSTSGGTAALGCLVKDYFPEPVTVSWNSGALTSGVHTFPAVLQSSGLYSLSSVVTVPSSSLGTQTYICNVNHKPSNTKVDKKVEPKSCDKTHTCPPCPAPELLGYPSVFLFPPKPKDTLMISRTPEVTCVVVDVSDEDPEVKFNWYVDGVEVHNAKTKPREEQYNSTYRVVSVLTVLHQDWLNGKEYKCKVSNKALPKPIEKTISKAKGQPREPQVYTLPPSREEMTKNQVSLTCLVKGFYPSDIAVEWESNGQPENNYKTTPPVLDSDGSFFLYSKLTVDKSRWQQGNVFSCSVMHEALHNHYTQKSLSLSP
light: DIVMTQSPATLSLSPGERATLSCTSSQSVYHANWLSWFQQKPGQPPKLLIYWASTLAYGVPSRFSGSGSGTDFTLTISSLQPEDAATYYCAGGYGGGRYAFGQGTKVEIKRTVAAPSVFIFPPSDEQLKSGTASVVCLLNNFYPREAKVQWKVDNALQSGNSQESVTEQDSKDSTYSLSSTLTLSKADYEKHKVYACEVTHQGLSSPVTKSFNRGEC
B9: M103205H795-MY142/M103202L889-SK1 (antibody, human IgG1, kappa)
heavy: QVTLKESGPVLVKPTETLTLTCTVSGIDLSHDDISWVRQAPGKGLEWVGIISYAGSTYYASWAKGRLTISKDTSKNQVVLTMTNMDPVDTATYYCARGVPAYSHGGDLWGQGTLVTVSSASTKGPSVFPLAPSSKSTSGGTAALGCLVKDYFPEPVTVSWNSGALTSGVHTFPAVLQSSGLYSLSSVVTVPSSSLGTQTYICNVNHKPSNTKVDKKVEPKSCDKTHTCPPCPAPELLEGPSVFLFPPKPKDTLMISRTPEVTCVVVDVSEEDPEVKFNWYVDGVEVHNAKTKPREEQYNSTYRVVSVLTVLHQDWLNGKEYKCKVSNKALPAPIEKTISKAKGQPREPQVYTLPPSREEMTKNQVSLTCLVKGFYPSDIAVEWESNGQPENNYKTTPMVLDSDGSFFLYSKLTVDKSRWQQGNVFSCSVMHEALHNHYTQKSLSLSP
light: DIVMTQSPATLSLSPGERATLSCTSSQSVYHANWLSWFQQKPGQPPKLLIYWASTLAYGVPSRFSGSGSGTDFTLTISSLQPEDAATYYCAGGYGGGRYAFGQGTKVEIKRTVAAPSVFIFPPSDEQLKSGTASVVCLLNNFYPREAKVQWKVDNALQSGNSQESVTEQDSKDSTYSLSSTLTLSKADYEKHKVYACEVTHQGLSSPVTKSFNRGEC

Target: T1, cynomolgus monkey FcγRIIa3 extracellular domain, C-terminal His-tag (cynomolgus monkey)
T1 construct: also called cyno FcγRIIa3; cynoFcgRIIa3; not shown: His-tag added to C-terminus
T1 chain: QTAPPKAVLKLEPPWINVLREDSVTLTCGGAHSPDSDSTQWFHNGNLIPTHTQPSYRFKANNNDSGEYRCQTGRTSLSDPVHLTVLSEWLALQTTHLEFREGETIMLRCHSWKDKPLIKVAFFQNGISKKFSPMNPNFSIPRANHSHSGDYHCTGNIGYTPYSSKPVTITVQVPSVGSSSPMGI
Test: SPR (Biacore), KD of SG1 / KD of variant;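 note: relative to parent M103205H795-SG1 carrying the SG1 human heavy chain constant region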

Row | Binder | KD fold (SG1 = 1)
1 | B1 | 1 fold
2 | B2 | 5.9 fold
3 | B3 | 4.7 fold
4 | B4 | 8.5 fold
5 | B5 | 6.3 fold
6 | B6 | 8.9 fold
7 | B7 | 13.1 fold
8 | B8 | 3.1 fold
9 | B9 | 0.7 fold
